{"source": "paper PMC4686657", "target": "GST-E2f1 (UniProt Q01094)", "sequence (Q01094 whole entry)": "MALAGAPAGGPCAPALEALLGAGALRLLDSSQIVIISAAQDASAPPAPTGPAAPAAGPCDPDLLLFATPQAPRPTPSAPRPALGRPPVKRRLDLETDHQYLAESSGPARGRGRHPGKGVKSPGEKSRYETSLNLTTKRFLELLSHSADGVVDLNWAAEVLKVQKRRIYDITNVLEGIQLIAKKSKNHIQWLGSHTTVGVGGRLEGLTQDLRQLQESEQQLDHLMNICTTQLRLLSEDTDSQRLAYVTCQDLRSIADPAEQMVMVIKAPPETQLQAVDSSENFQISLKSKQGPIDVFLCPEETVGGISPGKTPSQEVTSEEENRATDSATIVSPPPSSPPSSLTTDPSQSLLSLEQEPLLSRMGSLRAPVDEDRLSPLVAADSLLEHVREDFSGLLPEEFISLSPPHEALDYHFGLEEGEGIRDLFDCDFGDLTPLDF", "assay": "EMSA", "conditions": "increasing GST-E2f1, constant probe, EMSA: 20 mM HEPES, 10 mM KCl, 0.2 mM EDTA, 10% glycerol, 5 mM DTT (7 ul Binding Buffer D in 20 ul), 50 ng poly dI:dC, 0.15% NP-40, 1 ug BSA, 5 ug nuclear …"}
{"sequence": "CAGGCTTTTTCGGCGCGGAACGCAG (double strand) [Pfkl T-stretch probe]", "values": [{"measurement": "binding signal", "setting": "scale: fold signal vs Pfkl probe", "value": 1.88}]}
{"sequence": "CAGGCGACAGCGGCGCGGAACGCAG (double strand) [Pfkl probe]", "values": [{"measurement": "binding signal (reference (Pfkl T-stretch is 1.88-fold))", "value": 1}]}
